Test results published in publication PMC10439073.

What was measured:
Test in all cases: SPR
BAT1706 (human) = target: BAT1706 (human)
EU-bevacizumab (human) = target: EU-bevacizumab (human)
US-bevacizumab (human) = target: US-bevacizumab (human)

- Kd (BAT1706 (human)): 769 nM
- Kd (EU-bevacizumab (human)): 951 nM
- Kd (US-bevacizumab (human)): 983 nM
Substance: FcγRIIIa-158F (from UniProt P08637 17-208) (receptor)
